Two molecules from patent publication US20130078251A1 (Hoffmann-La Roche, published 2013) can be followed below.

Numbering of substitutions follows the chain as printed.

The target in assay [1] is T1, recombinant D3 domain of MCSP (UniProt Q6UVK1 1582-2224, limits assumed).
T1 construct: domain: D3 domain; also called MCSP D3
T1 sequence (looked up): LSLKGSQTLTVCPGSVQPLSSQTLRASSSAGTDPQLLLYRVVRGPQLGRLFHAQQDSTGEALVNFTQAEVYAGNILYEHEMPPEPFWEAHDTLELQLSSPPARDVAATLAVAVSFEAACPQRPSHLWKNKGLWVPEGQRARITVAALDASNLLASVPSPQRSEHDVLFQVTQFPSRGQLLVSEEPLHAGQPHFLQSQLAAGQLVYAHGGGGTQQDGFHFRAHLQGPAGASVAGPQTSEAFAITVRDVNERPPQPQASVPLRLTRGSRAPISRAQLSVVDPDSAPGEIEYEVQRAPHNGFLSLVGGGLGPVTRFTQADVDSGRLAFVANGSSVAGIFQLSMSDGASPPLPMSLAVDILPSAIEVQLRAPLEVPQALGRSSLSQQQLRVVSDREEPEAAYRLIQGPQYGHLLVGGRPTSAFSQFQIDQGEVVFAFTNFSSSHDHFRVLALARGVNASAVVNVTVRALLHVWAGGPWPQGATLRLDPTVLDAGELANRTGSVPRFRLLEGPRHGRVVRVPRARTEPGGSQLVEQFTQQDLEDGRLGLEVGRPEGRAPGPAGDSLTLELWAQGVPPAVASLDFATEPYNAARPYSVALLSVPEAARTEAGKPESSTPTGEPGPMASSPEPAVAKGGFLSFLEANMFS
Put plainly: Biacore T100, antibody amine-coupled on CM5 chip, MCSP D3 as analyte, 1:1 model, 37 °C. As for the experimental part: (§1) The monovalent binding affinities for the chimeric LC007 and the humanized variant M4-3 ML2 were determined using a Biacore assay. Briefly, the antibodies were chemically immobilized on a CM5 chip (Biacore) via amine-coupling (activation with EDC-NHS, coupling of 5000 RU for each antibody, deactivation with ethanolamine). The recombinant D3 domain of MCSP was used as analyte. The experiment was performed at 25° and 37° in HBS-EP+ running buffer on a Biacore T100. […] The surface was regenerated between injections with 10 mM glycine pH 2 for 30 s. The sensorgrams were fitted with the 1:1 binding model (with RI=0 and Rmax=local) to determine the Kd.

For assay [2], the target named is T1, recombinant D3 domain of MCSP. Description: Biacore T100, antibody amine-coupled on CM5 chip, MCSP D3 as analyte, 1:1 model, 25 °C. As for the experimental part:
as §1

Assay [3] concerns the target T2, Construct 4, CSPG repeat 12-15 of human MCSP with the original transmembrane region (human, UniProt Q6UVK1 1702-2246).
T2 construct: Expressed on HEK-EBNA cells
T2 sequence: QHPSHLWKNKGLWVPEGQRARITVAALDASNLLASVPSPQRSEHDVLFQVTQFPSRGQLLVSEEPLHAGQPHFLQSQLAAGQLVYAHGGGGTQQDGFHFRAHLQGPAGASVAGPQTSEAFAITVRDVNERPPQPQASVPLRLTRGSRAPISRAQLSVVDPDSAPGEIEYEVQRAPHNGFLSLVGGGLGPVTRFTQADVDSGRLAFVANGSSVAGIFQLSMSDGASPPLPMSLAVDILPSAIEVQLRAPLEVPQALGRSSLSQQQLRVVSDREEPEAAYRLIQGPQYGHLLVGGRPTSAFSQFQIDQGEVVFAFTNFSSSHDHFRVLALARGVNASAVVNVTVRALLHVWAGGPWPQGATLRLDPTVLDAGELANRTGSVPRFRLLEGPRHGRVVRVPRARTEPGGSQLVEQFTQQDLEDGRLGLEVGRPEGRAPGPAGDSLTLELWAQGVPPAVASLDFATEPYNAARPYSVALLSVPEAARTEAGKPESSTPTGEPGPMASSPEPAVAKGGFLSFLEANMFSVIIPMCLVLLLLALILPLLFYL
Put plainly: FACS titration on HEK-EBNA cells transfected with the construct.

Assay [4] addresses T3, Construct 1, CSPG repeat 15 of human MCSP with the original transmembrane region (human, UniProt Q6UVK1 2044-2246).
T3 construct: Expressed on HEK-EBNA cells; also called construct including only the MCSP repeat 15 and the natural transmembrane domain
T3 sequence: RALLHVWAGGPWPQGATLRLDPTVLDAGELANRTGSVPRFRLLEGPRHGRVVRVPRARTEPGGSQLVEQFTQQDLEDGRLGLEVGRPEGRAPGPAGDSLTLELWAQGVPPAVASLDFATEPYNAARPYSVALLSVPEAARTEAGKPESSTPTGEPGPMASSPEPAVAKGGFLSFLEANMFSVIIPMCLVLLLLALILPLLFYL
The assay is described as above.

Assay [5] concerns the target T4, human MCSP (melanoma chondroitin sulfate proteoglycan) on melanoma cells (human, UniProt Q6UVK1 30-2322).
T4 construct: Endogenous MCSP of human melanoma cell lines; also called surface MCSP; native form of MCSP
Put plainly: FACS titration on A2058 melanoma cells, FITC anti-human IgG Fc secondary antibody. As for the experimental part:
(§2) Binding activity was determined by the following method. Target cells were detached from culture flask with cell dissociation buffer, counted and checked for viability. Cells were resuspended and adjusted to 1.111×10⁶ (viable) cells/ml in PBS-0.1% BSA. 180 μl of this suspension were transferred to each well (200,000 cells/well) in a round bottom 96-well-plate, centrifuged for 4 min, at 400 g, and resuspended. 20 μl of antibody dilutions in PBS-0.1% BSA (from 10 μg/ml to 0.002 μg/ml) were added to each well. The samples were centrifuged for 4 min, at 400 g, and resuspended. Secondary antibody, FITC-conjugated AffiniPure F(ab′)2 fragment goat anti-human IgG Fcg Fragment Specific (Jackson Immuno Research Lab #109-096-098)), was added and the sample centrifuged for 4 min, at 400 g, and resuspended. Fluorescence was measured in flow cytometer (e.g. FACS Canto II). Antibody 9.2.27, described in Morgan A C Jr, Galloway D R, Reisfeld R A. Hybridoma. 1981; 1(1):27-36.; GenBank Accession Numbers: GI:20797193 and GI:20797189 for light and heavy chain respectively, was used as a reference (FIG. 2). Human melanoma cell-lines Colo38, A2058, and A375 were used. Giacomini et al. 1985 (for Colo38). Marquardt H, Todaro G J. J Biol Chem. 1982 May 10; 257(9):5220-5 (for A2058). Geiser M, Schultz D, Le Cardinal A, Voshol H, García-Echeverría C. Cancer Res. 1999 Feb. 15; 59(4):905-10 (for A375).

Assay [6] deals with T5, human MCSP D3 domain expression construct (human, UniProt Q6UVK1 1582-2224, limits assumed).
T5 construct: Built like the cynomolgus construct (signal peptide, N-terminal FLAG-tag); also called corresponding human expression construct; human counterpart
T5 sequence: T1 sequence (looked up) with R122H
Put plainly: flow cytometry titration on HEK-EBNA cells electroporated with the FLAG-tagged D3 domain construct. The source says:
(§3) An expression construct was generated that included the C-terminal part of the cynomolgus MCSP protein, a signal peptide for secretion and a N-terminal FLAG-tag (SEQ ID NO: 8) to test for crossreactivity towards the cynomolgus antigen. This domain was referred to as the D3 domain Tillet, F. et. Al, J. Biol. Chem. 272: 10769-10776 (1997). A similar construct was done for the human counterpart (SEQ ID NO: 9). An expression plasmid encoding for these two construct was electroporated into HEK-EBNA cells, and expression was confirmed with an anti-FLAG antibody. Binding of LC007 antibody was then tested by flow cytometry.

Assay [7] deals with T6, cynomolgus MCSP D3 domain expression construct (cynomolgus, UniProt Q6UVK1 1582-2224 (human entry), limits assumed).
T6 construct: also called cynomolgus construct; cynomolgus antigen
T6 chain: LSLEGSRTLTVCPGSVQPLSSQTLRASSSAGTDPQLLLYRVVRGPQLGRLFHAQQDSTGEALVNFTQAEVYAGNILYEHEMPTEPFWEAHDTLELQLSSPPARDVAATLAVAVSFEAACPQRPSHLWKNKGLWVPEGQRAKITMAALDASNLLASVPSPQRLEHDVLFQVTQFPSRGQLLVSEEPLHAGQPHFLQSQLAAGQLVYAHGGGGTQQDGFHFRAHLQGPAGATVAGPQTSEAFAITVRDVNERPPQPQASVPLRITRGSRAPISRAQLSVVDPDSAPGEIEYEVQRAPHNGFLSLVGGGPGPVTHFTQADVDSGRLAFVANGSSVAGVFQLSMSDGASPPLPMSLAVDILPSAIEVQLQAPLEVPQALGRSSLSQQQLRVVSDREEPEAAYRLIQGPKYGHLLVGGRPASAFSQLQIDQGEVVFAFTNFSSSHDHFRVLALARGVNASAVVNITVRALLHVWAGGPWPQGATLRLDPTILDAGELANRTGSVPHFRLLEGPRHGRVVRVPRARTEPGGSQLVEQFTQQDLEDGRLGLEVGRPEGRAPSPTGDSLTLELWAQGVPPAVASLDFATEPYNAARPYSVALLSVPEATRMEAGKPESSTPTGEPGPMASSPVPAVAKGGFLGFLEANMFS
The description is as above.
Excerpt: as §3

Assay [8] addresses T4, human MCSP (melanoma chondroitin …). Put plainly: FACS titration on Colo38 melanoma cells, FITC anti-human IgG Fc secondary antibody. Here is the method: as §2
The target is the same in assay [9]. Description: FACS titration on A375 melanoma cells, FITC anti-human IgG Fc secondary antibody. As for the experimental part:
as §2

T4 sequence (Q6UVK1 30-2322 limits assumed): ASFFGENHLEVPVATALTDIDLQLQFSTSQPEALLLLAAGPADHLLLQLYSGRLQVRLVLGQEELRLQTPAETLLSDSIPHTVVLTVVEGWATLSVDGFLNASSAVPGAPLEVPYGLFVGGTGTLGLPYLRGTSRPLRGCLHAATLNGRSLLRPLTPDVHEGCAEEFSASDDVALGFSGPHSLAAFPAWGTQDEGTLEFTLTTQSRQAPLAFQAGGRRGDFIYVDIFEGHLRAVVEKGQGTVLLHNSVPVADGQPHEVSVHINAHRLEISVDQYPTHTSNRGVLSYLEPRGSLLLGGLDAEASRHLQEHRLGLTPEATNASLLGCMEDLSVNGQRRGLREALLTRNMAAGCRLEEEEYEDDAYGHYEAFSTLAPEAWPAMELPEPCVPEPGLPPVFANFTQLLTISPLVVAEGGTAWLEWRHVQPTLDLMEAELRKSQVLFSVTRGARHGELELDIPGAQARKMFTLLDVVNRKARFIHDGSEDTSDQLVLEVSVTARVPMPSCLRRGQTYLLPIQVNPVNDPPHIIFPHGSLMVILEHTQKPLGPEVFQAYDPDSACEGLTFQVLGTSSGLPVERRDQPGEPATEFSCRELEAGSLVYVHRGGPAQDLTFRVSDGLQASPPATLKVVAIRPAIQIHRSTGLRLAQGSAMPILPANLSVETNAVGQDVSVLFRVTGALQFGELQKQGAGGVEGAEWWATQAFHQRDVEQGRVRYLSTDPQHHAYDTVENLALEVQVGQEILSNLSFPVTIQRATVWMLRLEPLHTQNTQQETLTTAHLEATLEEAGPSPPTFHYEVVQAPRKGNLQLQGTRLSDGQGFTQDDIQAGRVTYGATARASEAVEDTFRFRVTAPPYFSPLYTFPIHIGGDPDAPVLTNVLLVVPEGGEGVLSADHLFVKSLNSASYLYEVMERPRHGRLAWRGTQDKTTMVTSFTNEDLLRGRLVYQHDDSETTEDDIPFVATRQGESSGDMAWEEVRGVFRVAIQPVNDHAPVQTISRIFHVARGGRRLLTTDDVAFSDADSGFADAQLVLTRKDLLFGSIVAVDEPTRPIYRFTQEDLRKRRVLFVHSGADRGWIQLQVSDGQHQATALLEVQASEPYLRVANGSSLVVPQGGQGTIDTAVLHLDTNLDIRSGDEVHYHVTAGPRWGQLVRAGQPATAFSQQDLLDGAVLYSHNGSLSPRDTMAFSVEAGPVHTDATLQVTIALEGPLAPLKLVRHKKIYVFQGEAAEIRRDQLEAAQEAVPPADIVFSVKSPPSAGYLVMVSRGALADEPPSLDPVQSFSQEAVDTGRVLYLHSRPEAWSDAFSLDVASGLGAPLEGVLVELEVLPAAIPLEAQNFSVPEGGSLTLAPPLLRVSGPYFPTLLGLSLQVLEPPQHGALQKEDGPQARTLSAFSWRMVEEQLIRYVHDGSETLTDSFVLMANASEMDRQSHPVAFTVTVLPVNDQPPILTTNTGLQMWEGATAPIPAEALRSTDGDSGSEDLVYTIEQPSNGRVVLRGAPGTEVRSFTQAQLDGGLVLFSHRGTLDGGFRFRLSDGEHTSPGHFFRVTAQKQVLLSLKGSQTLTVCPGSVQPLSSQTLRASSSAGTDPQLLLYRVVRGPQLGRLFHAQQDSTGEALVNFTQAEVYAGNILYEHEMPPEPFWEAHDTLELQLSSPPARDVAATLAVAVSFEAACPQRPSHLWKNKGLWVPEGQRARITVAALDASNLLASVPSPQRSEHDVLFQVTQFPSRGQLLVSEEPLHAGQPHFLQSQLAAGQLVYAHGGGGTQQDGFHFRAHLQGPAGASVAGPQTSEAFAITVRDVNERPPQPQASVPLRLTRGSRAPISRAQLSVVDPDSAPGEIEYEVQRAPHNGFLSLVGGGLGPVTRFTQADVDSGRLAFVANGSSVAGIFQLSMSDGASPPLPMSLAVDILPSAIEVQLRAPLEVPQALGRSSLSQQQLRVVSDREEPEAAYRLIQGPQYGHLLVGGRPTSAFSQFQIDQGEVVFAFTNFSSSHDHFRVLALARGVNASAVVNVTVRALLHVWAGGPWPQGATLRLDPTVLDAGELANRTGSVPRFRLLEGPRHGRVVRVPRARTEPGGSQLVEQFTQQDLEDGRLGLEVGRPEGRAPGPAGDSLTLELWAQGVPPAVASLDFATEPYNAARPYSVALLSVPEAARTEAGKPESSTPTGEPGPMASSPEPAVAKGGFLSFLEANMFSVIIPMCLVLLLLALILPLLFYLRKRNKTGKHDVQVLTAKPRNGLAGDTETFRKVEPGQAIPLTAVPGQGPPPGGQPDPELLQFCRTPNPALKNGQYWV

B1: humanized variant M4-3 ML2 (antibody, human IgG1, kappa, V domains shown)
VH: QVQLQESGPGLVKPSQTLSLTCTVSGGSITSGYYWNWIRQHPGKGLEWIGYITYDGSNNYNPSLKSRVTISRDTSKNQFSLKLSSVTAADTAVYYCADFDYWGQGTLVTVSS
VL: DIQMTQSPSSLSASVGDRVTITCRASQGIRNYLNWYQQKPGKAPKLLIYYTSSLHSGVPSRFSGSGSGTDFTLTISSLQPEDFATYYCQQYSKLPWTFGQGTKVEIKR
notes: also called M4-3 ML2 antibody
On to B1, for which the dissociation constant Kd (in general, a measure of binding affinity in units of concentration) was 16.6 nM in [1] and 11.4 nM in [2].

B2: chimeric antibody LC007 (antibody, human IgG1, kappa, V domains shown)
VH: EVQLQESGPGLVKPSQSLSLTCSVTGYSITSGYYWNWIRQFPGNKLEWMGYITYDGSNNYNPSLKNRISITRDTSKNQFFLKLNSVTTEDTATYYCADFDYWGQGTTLTVSS
VL: DIVLTQSPSSLSASLGDRVTISCSASQGIRNYLNWYQQRPDGTVKLLIYYTSSLHSGVPSRFSGSGSGTDYSLTISNLEPEDIATYYCQQYSKLPWTFGGGTKLEIKR
notes: also called LC007 antibody; chimeric LC007
Turning to B2, the EC50 (read off the curve) – broadly, the concentration at which the effect is half-maximal – was roughly 0.3 µg/mL in assay [3]; roughly 0.03 µg/mL in assay [5]; roughly 0.08 µg/mL in assay [6]; roughly 0.1 µg/mL in [7]; roughly 0.05 µg/mL in [8]; roughly 0.05 µg/mL in assay [9]. Besides, the binding result in [4] is listed as “no binding (tested: 5 ug/ml)”. For the same molecule, the values for the Kd in assay [1] and in assay [2] were 10.8 nM and 9.8 nM, respectively.
